Source: paper PMC8867921

Target: nucleosome N(13,91) (chicken)
Experiment: single-particle FRET

poly(ADP-ribose) polymerase 1 (from UniProt P09874 1-1014) (enzyme)
content of PARP1-nucleosome complexes at 50 nM PARP1: 45%
